Measurements as given in patent US20230382979A1 (ADAPTIVE BIOTECHNOLOGIES, published 2023).

B1: antibody 2794 (antibody, V domains shown)
VH: QVQLVQSGAEVKKPGSSLKVSCKASGGTFNNFAISWVRQAPGQGPEWMGRINPILSAAKYAQKFQGRLTITADKSTTTAYMELSSLRSEDTAVYYCAPTGTGESWWFDPWGQGTLVTVSS
VL: QSVLTQPPSASGTPGQRVTISCSGSSSNIGTNYVYWYQQLPGTAPKVLIYGNNQRPSGVPDRFSGSKSGSSASLAISGLRSEDEADYYCAAWDDSLSGPVFGGGTKLTVL
B2: antibody 980 (antibody, V domains shown)
VH: QVQLVESGGGVVQPGRSLRLSCAASGFTFSRYGMHWVRQAPGKGLEWVALISSGGSNKYYADSVKGRFTISRDNSKNTLYLEMNSLRAEDTAVYYCAKDAIYDYIWGAYRENWFDPWGQGTLVTVSS
VL: DIQMTQSPSSLSASVGDRVTITCRASQSISNYLNWYQQKPGKAPNLLIYAASSLQSGVPSRFSGSGSGTDFTLTISSLQPEDFATYYCQQTSSPPLTFGQGTKVEIK
B3: antibody 3086 (antibody, V domains shown)
VH: QVQLQESGPGLVKPSETLSLTCTVSGGSISGHYWSWIRQPPGKGLEWIGYIYYSGSTNYNPSLKSRVTISVDTSVNQFSLKLSSVTAADTAVYYCARQEARDAVGNYFFDSWGQGTLVTVSS
VL: QSALTQPASVSGSPGQSITISCSGTSSDIGSYDLVSWYQQHPGKAPKLLIYDVTKRPSGVSHRFSGSKSGNTASLTISGLQGEDEADYYCCSYVHFSTWVFGGGTKLTVL
B4: antibody 4042 (antibody, V domains shown)
VH: QITLKESGPTLVKPTQTLTLTCTFSGFSLSSGGVGVGWIRQPPGKALEWLALIYWDDDKRYRPSLKSRLTITRDTSTNQVVLTMTNMDPVDTATYFCARHQIATVFDHWGQGTLVTVSS
VL: QSALTQPASVSGSPGQSITISCTGTSSDVGGYNYVSWYQQHPGKAPKLMIYEVSNRPSGVSSRFSGSKSGNTASLTISGLQAEDEADYYCSSYTRSSPLVAFGGGTKVTVL
B5: antibody 2564 (antibody, V domains shown)
VH: QVQLVQSGAEVKKPGSSVRVSCKASGGTFISYTFNWVRQAPGQGLEWMGRIIPIFGIVNYAQKFQGRVTIAADKSTSTAYMELSSLRSEDTAMYYCATATVDYDSGEEQSSFDPWGQGTLVTVSS
VL: EIVLTQSPGTLSLSPGERATLSCRASQSVSSSYLAWYQQKAGQTPRLLIYAASSRATGVPDRFSGSGSGTDFTLTISRLEAEDFAVYYCQQSWTFGQGTKVEIK
B6: antibody 1871 (antibody, V domains shown)
VH: EVQLVESGGGLVKPGGSLRLSCVASGFSFSIYSMNWVRQAPGKGLEWVSYISSSSSYKYYADSVKGRFSVSRDNAKNSLYLQLNGLRAEDTAVYYCARDGYCPKGVCTYYGMDVWGQGTTVTVSA
VL: EIVMTQSPATLSVSPGERVTLSCRASQSVRSRLAWFQQKPGQAPRLLIYDASIRATGIPARFSGSGSGTEFTLIISSLQSEDFAVYYCQQYDNWPPAYTFGQGTKLEIK
B7: antibody 1872 (antibody, V domains shown)
VH: EVQLVESGGGLVKPGGSLRLSCAASGFSFSLYTMNWVRQAPGKGLEWVSYISSSSSYRYYADSVKGRFSVSRDNAKNALYLQMNGLRAEDTAVYYCARDGYCPRGVCTYYGMDVWGQGTTVTVSA
VL: EIVMTQSPATLSVSPGERATLSCRASQSVGSRLAWYQQKPGQAPRLLIYDATIRATGIPARFSGSGSGTDFTLTISGLQSEDFAVYYCQRYNNWPPAYTFGQGTKLEIK
B8: antibody 2892 (antibody, V domains shown)
VH: QVQLVQSGAEVKKPGSSVKVSCKASGDAFISYAISWVRQAPGQGLEWMGGIIPIFGTANYAQKFQGRVTISADESTSTAYMELSRLRSEDTAVYYCARGGPEPYGSGSGYTPRYNWFDPWGQGTLVTVSS
VL: QSALTQPRSVSGSPGQSVTISCTGTSSDVGGYNYVSWYQQHPGKAPKFMIYDVNRRPSGVPDRFSGSKSGNTASLTISGLQAEDEADYYCCSYAGTYTWVFGGGTKLTVL
B9: antibody 4441 (antibody, V domains shown)
VH: EVQLVESGGGLVQPGRSLRLSCAASGLTFEDYAMHWVRQPPGKGLEWVSGVSWNSGTIGYADSVKGRFTISRDNAKNSLYLHMRSLGAEDTAMYYCAKDMGGRFSFFSLENDAFDIWGQGTMVIVSS
VL: SYELTQPPSVSVSPGQTARITCSGDALPKQSTYWYQQKPGQAPVLVIYKDIERPSGIPERFSGSSSGTTVTLTISGVQAEDEADYYCQSADSSDTYVFGTGTKVTVL

How the values were obtained:
[1] = biological target: T1, SARS-CoV-2 spike protein on live virus, strain USA-WA1/2020 (SARS-CoV-2, WA01/2020 strain, UniProt P0DTC2 14-1273); assay: cell-based or functional assay
[2] = biological target: T2, Receptor-binding domain (RBD) of the SARS-CoV-2 spike protein, WA01/2020 strain (SARS-CoV-2, WA01/2020 strain, UniProt P0DTC2 319-541); assay: ELISA, antibody blocks RBD binding to human ACE2
[3] = biological target: T2, Receptor-binding domain (RBD) of the …; assay: dose-response ELISA on coated antigen
[4] = biological target: SARS-CoV-2 spike protein, B1.1.7 (alpha variant), borne on lentiviral pseudovirus (SARS-CoV-2, B1.1.7); assay: cell-based or functional assay
[5] = biological target: SARS-CoV-2 spike protein, B1.351 (beta variant), borne on lentiviral pseudovirus (SARS-CoV-2, B1.351); assay: cell-based or functional assay
[6] = biological target: T2, Receptor-binding domain (RBD) of the …; assay: SPR (Biacore 8K), antigen immobilized, antibody injected
[7] = biological target: T1, SARS-CoV-2 spike protein on live virus, …; assay: cell-based or functional assay; remark: listed apart in the source
[8] = biological target: SARS-CoV-2 spike protein on live virus, B1.351 (beta variant) (SARS-CoV-2, B1.351); assay: cell-based or functional assay
[9] = biological target: T2, Receptor-binding domain (RBD) of the …; assay: ELISA screening, antibody concentration not given

Binder | IC50, live virus micro-neutralization WA1/2020 [1] [nM] | IC50 [2] [nM] | EC50 [3] [nM] | Pseudo Neut, B1.1.7 IC50 (pM) [4] [pM] | Pseudo Neut, B1.351 IC50 (pM) [5] [pM] | Kd [6] [nM] | Live Neut, WA1/2020 IC50 (pM) [7] [pM] | Live Neut, B1.351 IC50 (pM) [8] [pM] | binding result [9]
B1 | 0.055 | 0.137 | 0.022 | 148 | 428 | 0.232 | 17 |  | 
B2 | 0.0082 | 0.86 | 0.023 | 1670 | 1740 | 0.87 | 25 | 83 | 
B3 | 0.062 | 0.562 | 0.03 | 71 | 115 | 0.242 | 7 | 210 | 
B4 | 0.039 | 1.09 | 0.021 | 200 | 948 | 0.036 | 15 | 140 | 
B5 | 0.0226 | 0.776 | 0.023 | 33 | 196 | 0.012 | 7 | 121 | 
B6 |  |  |  | 110 | 208 |  |  |  | no binding (tested: not printed)
B7 |  |  |  | 130 | 75 |  |  |  | no binding (tested: not printed)
B8 | 0.082 | 0.762 | 0.089 | ~13 | 125 | 0.005 | 10 | 403 | 
B9 | 0.058 | 1.02 | 0.05 | ~13 | 2320 | 0.022 | 85 |  | 
